Target: OsMADS57 (Oryza sativa) (UniProt Q6Z6W2)
Test: SPR
Conditions: SPR (Biacore 3000, SA chip): 10 mM Hepes pH 7.9, 50 mM KCl, 1 mM EDTA, 0.5 mM DTT, 5 mM MgCl2, 10% glycerol, 0.005% P20, 25 or 4 C, protein 0.15-4.80 uM, EMSA: …

OsMADS57 (Oryza sativa), sequence (Q6Z6W2 whole entry): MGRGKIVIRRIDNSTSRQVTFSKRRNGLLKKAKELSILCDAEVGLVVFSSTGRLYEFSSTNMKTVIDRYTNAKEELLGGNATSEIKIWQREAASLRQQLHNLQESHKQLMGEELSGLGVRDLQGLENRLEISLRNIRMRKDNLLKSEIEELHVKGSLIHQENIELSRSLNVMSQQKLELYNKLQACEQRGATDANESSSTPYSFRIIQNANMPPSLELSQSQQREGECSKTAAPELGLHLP

TTAACTTTAAAAAGTTAGTTAACTTTAAAAAGTTAGTTAACTTTAAAAAGTTAG (double strand) [WRKY94S2]
Kd (25 C): 1200 nM | Kd: 700 nM
